According to the Human Domainome abundance scans (Beltran et al. 2025):

B1: Steroid hormone receptor ERR2, residues 100 to 176; numbered along this chain, O95718 (parent)
chain: KRLCLVCGDIASGYHYGVASCEACKAFFKRTIQGNIEYSCPATNECEITKRRRKSCQACRFMKCLKVGMLKEGVRLD

Variants of: B1
Assay: abundance fitness (aPCA) (normalised: wild type 0, dead -1); higher = more abundant; growth selection in yeast, the domain comes from the species named
Conditions: Homo sapiens

Abundance fitness, by site and new letter:
A58: S -0.33 | C -0.346 | E -0.235 | F -0.377 | D -0.334 | G -0.205 | T -0.518 | R -0.076 | V -0.772 | L -0.44 | Q -0.145 | K -0.089 | H -0.445 | M -0.227 | Y -0.347 | P -0.61 | N 0.044 | W -0.308
S39: I 0.19 | M 0.39 | L 0.283 | H 0.103 | W 0.22 | Y 0.283 | K 0.305 | V 0.294 | T 0.254 | N 0.397 | P 0.089
E47: Y -0.184 | T -0.112 | M -0.592 | D 0.038 | I -0.476 | K -0.155 | G -0.165 | L -0.103 | Q -0.083 | C -0.172 | A -0.102 | S -0.229 | N -0.09 | F -0.354 | V -0.14
I48: P -0.242 | W -0.227 | S -0.108 | R -0.518 | N 0.266 | M -0.166 | F -0.298 | A -0.157 | C -0.312 | V 0.007 | T -0.159 | G -0.191
E45: H -0.143 | C -0.396 | W -0.981 | F -0.329 | M -0.176 | V -0.144 | N -0.235 | D -0.086 | T -0.209 | L -0.303 | S -0.149 | P -0.637 | G 0.003 | A -0.172 | Q 0.055 | I -0.288
K54: E 0.129 | T -0.024 | C -0.351 | L 0.005 | I 0.073 | W -0.05 | R 0.008 | G 0.155 | F -0.243 | Q 0.195 | A 0.009 | D 0.092 | N 0.175 | H 0.144 | Y 0.091 | V 0.007
Q57: T -0.325 | R -0.17 | H -0.347 | G 0.122 | V -0.213 | F -0.243 | I -0.633 | A -0.018 | N -0.246 | K -0.118 | W -0.15 | P -0.066 | C -0.152 | D -0.042 | S -0.125 | M -0.221 | L -0.232
P41: F -0.214 | I -0.071 | Y 0.018 | E 0.057 | N 0.123 | G 0.128 | L -0.134 | T -0.147 | C -0.045 | W -0.253 | M -0.161 | R -0.158 | V 0.093 | Q -0.045 | S -0.137 | H -0.028 | A 0.056 | K -0.037 | D 0.213
C59: A -0.686 | L -0.873 | E -0.704 | N -0.711 | D -0.513 | P -0.688 | H -0.545 | K -0.483 | I -0.542 | F -0.451 | M -0.631
S55: Y 0.206 | I 0.344 | W 0.263 | G 0.336 | C 0.393 | P 0.257 | N 0.405 | H 0.351 | D 0.318 | T 0.277 | K 0.149 | R 0.22 | L 0.341 | A 0.278 | M 0.374
R51: N -0.072 | C -0.803 | M 0.173 | K -0.002 | L -0.097 | Y -0.384 | H -0.08 | E 0.152 | D -0.084 | A 0.002 | T -0.04 | F -0.161 | W 0.022 | G 0.033 | Q 0.119 | I -0.269 | S -0.14
N44: I 0.034 | H -0.314 | E 0.022 | R 0.011 | V -0.077 | Y -0.278 | W -0.269 | C -0.473 | Q -0.013 | L -0.278 | K 0.007 | D 0.119 | P -0.741 | S -0.127 | F 0.068 | T -0.22 | G 0.117
C46: R -0.704 | G -0.679 | A -0.888 | D -0.844 | I -1.06 | P -0.796 | W -0.733 | M -0.557 | V -0.615 | S -0.539 | L -0.803 | F -0.768 | H -0.308 | N -0.735 | Y -0.59 | T -0.766 | K -0.572 | Q -0.834 | E -0.623
R53: A 0.005 | V -0.008 | W -0.084 | E 0.073 | Q 0.096 | L 0.074 | M 0.107 | P -0.069 | N 0.027 | G 0.049 | D 0.026 | T 0.063 | F 0.065 | C -0.103 | S -0.114 | K 0.015 | Y -0.14
C40: Y -0.247 | P -0.684 | N -0.586 | M -0.742 | I -0.443 | R -0.734 | D -0.982 | G -0.711 | Q -0.604 | A -0.91 | S -0.632 | V -0.688 | F -0.876 | E -0.726 | K -0.781 | W -0.94
K50: I 0.112 | E 0.224 | N 0.071 | M 0.098 | T 0.019 | Q 0.142 | Y -0.128 | C -0.51 | L -0.088 | F 0.047 | A 0.126 | D -0.055 | G -0.102 | V 0.118
T43: K 0.212 | L -0.234 | N -0.085 | M 0.03 | R 0.043 | V -0.012 | H -0.459 | I -0.065 | E 0.042 | Q -0.175 | W -0.021 | C -0.651 | F -0.558 | Y -0.252 | S -0.237 | D -0.152 | A 0.081 | P -0.393
R52: C -0.86 | D -0.242 | H -0.627 | S -0.155 | G 0.062 | T 0.039 | M -0.084 | F -0.056 | E 0.136 | L 0.099 | A -0.037 | Q 0.128 | P -0.339 | V -0.003 | Y -0.452 | W -0.043 | N -0.156 | K -0.115
C56: N -0.845 | G -0.718 | A -0.828 | L -0.76 | F -0.936 | H -0.599 | D -1.17 | E -0.627 | P -0.666 | M -0.9 | W -0.722 | I -0.679 | T -0.691 | S -0.847 | R -0.872 | Y -0.884
T49: E -0.003 | Q -0.332 | D 0.118 | R -0.2 | G -0.041 | A 0.189 | V -0.138 | P -0.223 | W -0.199 | N 0.015 | C -0.948 | S -0.164 | I -0.281 | H -0.523 | L -0.117 | K -0.035 | F -0.254
A42: M -0.033 | K -0.087 | D 0.045 | V -0.153 | L -0.064 | S -0.098 | H -0.445 | F -0.209 | R -0.024 | Q -0.191 | I 0.027 | W -0.043 | C -0.501 | E 0.027 | G -0.025
